The data set in a line: label from the status in PepcDB records.
For “GHMSEFVSIAARQEGAVGIIELARPDVLNALSRQMVAEIVAAVEAFDRNEKVRVIVLTGRGRAFAAGADIQEMAKDDPIRLEWLNQFADWDRLSIVKTPMIAAVNGLALGGGFELALSCDLIVASSAAEFGFPEVNLGVMPGAGGTQRLTKLIGPKRALEWLWTGARMSAKEAEQLGIVNRVVSPELLMEETMRLAGRLAEQPPLALRLIKEAVQKAVDYPLYEGMQFERKNFYLLFASEDQKEGMAAFLEKRKPRFQGK”, the protein production result is on record as “not failed”. Then “GHMSPGERFLDWLKRLQGQKAWTAARAAFRRSLAFPPGAYPRAMPYVEPFLAKGDWRQEEREAHYLVAALYALKDGDHQVGRTLARALWEKAQGSASVEKRFLALLEADRDQIAFRLRQAVALVEGGIDFARLLDDLLRWFSPERHVQARWAREYYGAGASEEEKKKEVEA”, with “not failed”; and “GIKDSPVNKVEPNDTLEKVFVSVTKYPDEKRLKGLSKQLDWSVRKIQCWFRHRRNQDKP”, with “not failed”; and “GKKIKYDTPLSTLVIAPPGTGKTSAIIIPNLLSIPNSQVVIDVKGEICSLTAGYRQKKLLNQVFIFNPFGEDSNFHFNPFNLERMSKLGFAEKTAIVRQVGSTIFPKPKDEKDSHWRETAKTFFEFAAMHNIEKYGYTTLYEIYRFPKKDWTDELEDKYFDEKEKREELGEEVNTFRLLLRQIAENETLHDNIRDDARRFLGTPANEFGSVLSTFSTKMSIFGDLRVKELTDQNSFMPERLREDNITLYIKCLEKDIPSLSPIIRILLETIVKELMSRESTDPKERIYLELDEVMRFGELDFMIELPSISRSYNLPNIFAAQSYAQIRKHYSQEDLEIMLDTVAYQVVFRANRQQAAEDISKEVGDFTAHKKTTSSQDIKILQSYSTSEEAKRLVTAQDILNIPKDKVLILATGHKATPILAQANFYFKDRTERQKTKIKKE”, with “failed”.

As to “GKRSTMLLRAITPQDWDAILQIQEECYSQLDPEPLHVLQSKWHVSPQSCFVFEVNESVVGYCLAHPWTTNMPPALYEPITHLPKADTLYLHDIAISAKAQGLGAGSKALMRLKQLADRFNLGSLSLVAVQGADSYWRKMGFTPKAIDKCLGSYTDDAMYMIYKL”, the protein production entry is “failed”. Next, “GKTFPDVPADHWGIDSINYLVEKGAVKGNDKGMFEPGKELTRAEAATMMAQILNLPIDKDAKPSFADSQGQWYTPFIAAVEKAGVIKGTGNGFEPNGKIDRVSMASLLVEAYKLDTKVNGTPATKFKDLETLNWGKEKANILVELGISVGTGDQWEPKKTVTKAEAAQFIAKTDKQFGTE”: “not failed”; “GMINAHNHLPMIAFRGLGEEGISNRLFAYFFPLEAQKLSRELIYNATKLGAIDLAQSGVTTYADMYYHMDEMAKATKEVGLRAVLGETVIKFPVVDAKQPYGGIQYAKPFIEEYQNDPLITPAYAPHAVYTVSKEKLQEINQLSEDYDVPVLIHVAEFPNEEARIKDPTKATSPVEYLEEIGVLDERMVIAHGIHLSQHDQALLKQADAGVVYNPMANVKGATGIAPAWDMFRADMRVGLGTDGPMSSNQVDLWRTLSYAANMQRLKHSDRTIMIPEQVIEMATIGGAKALHMEDE”: “failed”. Then “GNLEEMNIDPDNATQTHPKLLLTQICMNAFKRGTDGMYATKKVIQADGESADQYYKWTRGSFGYYDNLRNVQKMGEEAERVNAPVYTALTKFFRAYYFYELTLRFGDIPYSQALKGEKEEIYTPEYDAQEDVFAGILQELREADEILANDASVIDGDIIYNGNSTQWRKLINSFRLKVLMTLSNHTTVGNINIASEFKNIATNSPLMNSLADNGQLVYLDQQGNRYPQFNAQWSGYYMDDTFIQRMRERRDPRLFIFSAQTNKGKTEGKPIDDFSSYEGGDPAAPYSDAIIKVSEGTISPINDRFRTDPIVEPTMLMGYAELQQILAEAVVRGWISGNAQTYYEKGIRASFSFYETHAKDYAGYLNENAVAQYLKEPLVDFTQASGTEEQIERIIMQKYLVTFYQGNWDSFYEQLRTGYPDFRRPAGTEIPKRWMYPQGEYDNNGTNVETAITRQFGAGNDKINQATWWQKKS”, with “not failed”; and “GPGSMSLKVNILGHEFSNPFMNAAGVLCTTEEDLRRMTESESGSLIGKSCTLAPRTGNPEPRYFGLPLGSINSMGLPNLGVDFYLSYAAQTHDYSRKPLFLSMSGLSVEESVEMVKKLAPITKEKGTILELNLSCPNVPGKPQVGYDFDTTRTYLQKVSEAYGLPFGVKMPPYFDIAHFDMAAAVLNDFPLVKFITCVNSIGNGLVIDPANETVVIKPKQGFGGLGGKYVLPTALANVNAFFRRCPDKLVFGCGGVYSGEEAFLHILAGASMVQVGTALHDEGPIIFARLNKELQEIMTNKGYKTLDEFRGRVKTMD”, with “not failed”; and “GPLQVSNARLLFPISMPEDEGVVRLVVNNTDESDLQVAVVSLPSFVSLDDRAFRLQAREPRELNLSLAVPRNMPPGMKDEPLVLEVTSPETGKKAVDSVMVSLPLVDNFPALTAAQTGVMELSTYLDMGQLDGETTKAAIEIRNVGAGPLRLHSVTTRNPALTAVPDRTEIKPGGSTLLRIAVDPQVMKAEGWQSIAADISIICNDPQAPLRRIKVKAEL”, with “not failed”. Then “GPYATEVELREMVDIAQEHGIVEIEERRMIQSVFDLASTTVRQVMVPRPEMIWIESGKTAGQATALCVRSGHSRIPVIGENVDDIIGIVYLKDLVQKTYYATDGGKSVLVDEVMREATFVPDSKSLDALLQEMQEDHKHIAILVDEYGGVAGLISIEDILEEIVGEIADEYDAREVAPIEKIGDRTYRVVSRL”, with “not failed”; and “GQEYRALPGADTGRPDLDRSYALVYPAPRPKALLLLVPGLLGGSTNFALLAERLRAMAPGLEVWAWERRANGLEDRRGFLREDPVAYYRALALPDLTPLRAWGLEVHLKDLDLAVEAARARAPVVLAGHSLGAALAGLYALLHGEKLSGLVLLDGAPGVVPLAEEAFYEGADLPFGRLVGYRAFLRGEGSPAVELLGLGPKALALAEAEAFLAAKRPEEDLPFGPYRATREALALLRVDDDYSLFPVFSVSAGRAWAREGFSLLGLLQGRLVRTVRGPRAGPIAWRDTGEATDPRAFLRAFALPETGFSEWYFPYRLLLEVGGYPYVLRGLKPRALPYPVLALGAGRGLYPRAEDFRLGELFPGTEARAQVLPGLTHLDLLTEREGRTAGLLLRYLQDL”, with “failed”; and “GQSEDGLSVPKPLGIVEPWQMWLQRWVPGQPATELLITRPDLPEKIAALAHKIHSHSVPTTKTHTIATELQILGDRLREFSHQQPQWQTQIQHFIAQSEQLGEVLNKYPRPTTTIHRDFYPDQILVDGNHLWLVDLDLYCKGDPAVDLGNFIAHMTEYSLRTWG”, with “failed”. For the sequence “GRDYVLSANLSLGMNKMKVDKLNGTDNVIWDQNNRWKSSYNDYCLKVGDQVGLIYGFVYDGLYSMDEFYFDPTNNLQAVPWGSTAAENGTSKDAPIMDADGVEHPKTIINQISGDSNSGIATLPGKVKFKDLNGDGYITEDDRTVIGNTNPKVQGGFGLSGQWKGFDFAMNFNFMLDFDVNNATAYQLSSSESNKNKFYNVLSTFADKGWRYTRDGDGECLYKCYYIDGSLDMYRELNEGRTLWNPTDVTKKITHSYFIEDGSFLRCQDLTVGYTLPGNLTSKWGISKARFYVSASNLFIITGYSGYDPEVDIQTGLTCGMDYNRYPRSRSFVLGTNITF”, the protein production result is “failed”. Then “GRGTVTNEVRVAVEVPALPAAIASRLEVPAGAGGVYVERLRRLDGLPLSLDTSYLTVDVGRAVLAGDLRDRDVFGLIEEAAGARLGRAEVAVHAVNADPGTARLLGIGPGAAVFALERLTRLADGRPVDAESIRIRADRMA”, with “failed”; and “GSEEEEIPFRCFICRQAFQNPVVTKCRHYFCESCALEHFRATPRCYICDQPTGGIFNPAKELMAKLQK”, with “not failed”; and “GSGKNLIMIQVEALQGFVVNKSINGKEITPNLNKWINKSLYFDNYFYQVAQGNTSDAEFMSLNSLYPAQSGAAYYTYAGNTFNSIPKDLGDKGYYTAALHGYNEGFWNRNVMYKSEKFDDFYGQTSYKNDEVVGMGLSDESFLNQSLAKMKTFKQPYFSFLITLSSHYPFNDTAGYEKYTMNKLDVGEYKDTLLGNYFEGIHYTDEQLGKFLDKLDKEGLTKNSIIVLYGDHFAIPKENINQLYSFEGIKDPTDLTWYEYQKVPMFIHFPDDEHKGVNHTYSGQMDIYPTIANLYNISNNYMFGEDILNVKDGDSTNVTFRNGSFTDGK”, with “failed”.

For the sequence “GSSGSSGMGNSKSGALSKEILEELQLNTKFSEEELCSWYQSFLKDCPTGRITQQQFQSIYAKFFPDTDPKAYAQHVFRSFDSNLDGTLDFKEYVIALHMTTAGKTNQKLEWAFSLYDVDGNGTISKNEVLEIVMAIFKMITPEDVKLLPDDENTPEKRAEKIWKYFGKNDDDKLTEKEFIEGTLANKEILRLIQFEPQKVKEKMKNA”, the protein production result is given as “not failed”.

“GSSILDRAVIEHNLLSASKLYNNITFEELGALLEIPAAKAEKIASQMITEGRMNGFIDQIDGIVHFETREA”: the protein production result is on record as “not failed”. Take “GTGTQPTIVIGGFVPDATEAVEFQRELFRRHGSVYYLNYARHGFSVEMFFAQLADLVEDLNRRGEKPVIFAISFGCSLLSRFLRERYSGEGLTVGGIVMTSP”: the protein production result is “failed”. In the case of “GVLILHGFTANLESVRALFGPLGRFDLKMATPLLRGHGAASPDELRGVTWREWLDDAENAFETLTGTGGKAVVIGHSMGALLALQLAARRPELVDSVILATPPVRLTSPLGPGRPLHFLAPLVSHVVDRWDMEARFADPGSAIIPKQYDWAPTKTILSMFELLEETMRITGRVRVPALILQARHESVVLPESAEILTRAIATPPEAKSIVWFDKTDHQIFCDCERKAAVDAVVSFVSKRFP”, the protein production result is on record as “failed”. In the case of “HGILIRSSAFLEELADLTSLVVDKTGTLTHGSLRLQALRLADAAEEASVLRLAASLGAASSHPVSRALAALAAHDAYHPLSDIRERQGFGVVARTAAGEAALGRPELFQQLGIDASEVPEHEGPIAGIALDGRFLGWLLLADSVRAEAAEALADLRELGLGRQLLLTGDRRAVADAVAKQVGIRQLVAQALPEDKLRQVGAEIGSGFRPMVVGDGINDSLALKAGVVGVAMGAGGADIALASADIVLIGSDLRRLGTCVRLSR”, the protein production result is recorded as “failed”. Next, “HSGEDLPMVAPGNVRVNVVNSTLAEVHWDPVPLKSIRGHLQGYRIYYWKTQSSSKRNRRHIEKKILTFQGSKTHGMLPGLEPFSHYTLNVRVVNGKGEGPASPDRVFNTPEG”: “not failed”; “HVLYSNILNRDVTISIYLPESYNQLVKYNVILCFDGLDFLRFGRIQRTYESLIKEARIDDAIIVGFHYEDVDKRREEFHPQGSRSHLTIQSVGKEILPFIDSTFSTLKVGNARLLVGDSLAGSIALLTALTYPTIFSRVAMLSPHSDDKVLDKLNQCANKEQLTIWHVIGLDEKDFTLPTNGKRADFLTPNRELAEQIKKYNITYYYDEFEGGHQWKDWKPLLSDILLYFLRKNTDDQHYE”: “failed”. In the case of “HVQLSLPVLQVRDVLVRGFGDSVEEALSEAREHLKNGTCGLVELEKGVLPQLEQPYVFIKRSDALSTNHGHKVVELVAEMDGIQYGRSGITLGVLVPHVGETPIAYRNVLLRKNG”, the protein production result is on record as “not failed”.
